We go through one substance from publication PMC9364107.

This assay has as its target SF3B1 residues 147–462 (ULM-containing N-terminal region) (human) (UniProt O75533). In words: ITC. (In general: ITC needs no label: the signal is the heat of the interaction.)

Chain of SF3B1 residues 147–462 (ULM-containing N-terminal region) (human) (O75533 147-462): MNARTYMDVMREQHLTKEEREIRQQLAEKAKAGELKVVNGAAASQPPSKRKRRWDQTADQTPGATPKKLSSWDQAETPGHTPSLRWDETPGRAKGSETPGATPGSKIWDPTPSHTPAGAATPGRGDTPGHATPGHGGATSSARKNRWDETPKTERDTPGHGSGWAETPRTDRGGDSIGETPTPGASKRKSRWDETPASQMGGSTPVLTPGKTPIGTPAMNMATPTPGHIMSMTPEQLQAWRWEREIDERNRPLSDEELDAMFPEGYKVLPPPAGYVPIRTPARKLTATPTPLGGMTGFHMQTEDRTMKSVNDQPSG

The stoichiometry N is the number of molecules, sites or subunits per partner or assembly. For “U2AF2^12UL (nearly full-length U2AF2, residues 141–471) (domain or fragment)”, the stoichiometry N was 2.
